How the values were obtained:
[1] = target: D3H44 light chain Q124R_T178R, N-terminal HA or FLAG tag; assay: LCCA, SPR of light chain tags, L1:L2 DNA 1:3 norm. to 1:1; other light chain m16
[2] = target: D3H44 light chain Q124R_Q160K_T178R, N-terminal HA or FLAG tag; assay: as above
[3] = target: D3H44 light chain Q124R_T178R, N-terminal HA or FLAG tag; assay: LCCA, SPR of light chain tags, L1:L2 DNA 1:3 norm. to 1:1; other light chain m15
[4] = target: D3H44 light chain Q124E_T178E_T180E, N-terminal HA or FLAG tag; assay: LCCA, SPR of light chain tags, L1:L2 DNA 1:9 norm. to 1:1; other light chain m17
[5] = target: D3H44 light chain Q124R_Q160K_T178R, N-terminal HA or FLAG tag; assay: LCCA, SPR of light chain tags, L1:L2 DNA 1:9 norm. to 1:1; other light chain m21
[6] = target: D3H44 light chain Q124R_Q160K_T178R, N-terminal HA or FLAG tag; assay: LCCA, SPR of light chain tags, L1:L2 DNA 1:3 norm. to 1:1; other light chain m23
[7] = target: D3H44 light chain Q124R_Q160K_T178R, N-terminal HA or FLAG tag; assay: LCCA, SPR of light chain tags, L1:L2 DNA 1:3 norm. to 1:1; other light chain m21
[8] = target: D3H44 light chain Q124R_T178R, N-terminal HA or FLAG tag; assay: LCCA, SPR of light chain tags, L1:L2 DNA 1:3 norm. to 1:1; other light chain m20
[9] = target: D3H44 light chain Q124R_T178R, N-terminal HA or FLAG tag; assay: LCCA, SPR of light chain tags, L1:L2 DNA 1:9 norm. to 1:1; other light chain m15
[10] = target: D3H44 light chain Q124E_S131T_T178Y_T180E, N-terminal HA or FLAG tag; assay: LCCA, SPR of light chain tags, L1:L2 DNA 1:9 norm. to 1:1; other light chain m14
[11] = target: D3H44 light chain Q124E_S176L_T180E, N-terminal HA or FLAG tag; assay: as above
[12] = target: D3H44 light chain Q124E_Q160E_T178E, N-terminal HA or FLAG tag; assay: LCCA, SPR of light chain tags, L1:L2 DNA 1:3 norm. to 1:1; other light chain m17
[13] = target: D3H44 light chain Q124E_T178E_T180E, N-terminal HA or FLAG tag; assay: as above
[14] = target: D3H44 light chain Q124E_S176L_T180E, N-terminal HA or FLAG tag; assay: as above
[15] = target: D3H44 light chain Q124E_T178E, N-terminal HA or FLAG tag; assay: as above
[16] = target: D3H44 light chain Q124R_T178R, N-terminal HA or FLAG tag; assay: LCCA, SPR of light chain tags, L1:L2 DNA 1:9 norm. to 1:1; other light chain m16
[17] = target: D3H44 light chain Q124R_Q160K_T178R, N-terminal HA or FLAG tag; assay: LCCA, SPR of light chain tags, L1:L2 DNA 1:3 norm. to 1:1; other light chain m26
[18] = target: D3H44 light chain Q124E_S131T_T178F_T180E, N-terminal HA or FLAG tag; assay: LCCA, SPR of light chain tags, L1:L2 DNA 1:3 norm. to 1:1; other light chain m14
[19] = target: D3H44 light chain Q124E_S131T_T178Y_T180E, N-terminal HA or FLAG tag; assay: as above
[20] = target: D3H44 light chain Q124E_S176L_T180E, N-terminal HA or FLAG tag; assay: as above
[21] = target: D3H44 light chain S131E, N-terminal HA or FLAG tag; assay: LCCA, SPR of light chain tags, L1:L2 DNA 1:3 norm. to 1:1; other light chain m17
[22] = target: D3H44 light chain Q124R_T178R, N-terminal HA or FLAG tag; assay: LCCA, SPR of light chain tags, L1:L2 DNA 1:3 norm. to 1:1; other light chain m19
[23] = target: D3H44 light chain Q124R_Q160K_T178R, N-terminal HA or FLAG tag; assay: as above
[24] = target: D3H44 light chain S131E, N-terminal HA or FLAG tag; assay: LCCA, SPR of light chain tags, L1:L2 DNA 1:3 norm. to 1:1; other light chain m14
[25] = target: D3H44 light chain Q124E_V133D_S176L, N-terminal HA or FLAG tag; assay: LCCA, SPR of light chain tags, L1:L2 DNA 1:9 norm. to 1:1; other light chain m17
[26] = target: D3H44 light chain Q124R_Q160K_T178R, N-terminal HA or FLAG tag; assay: LCCA, SPR of light chain tags, L1:L2 DNA 1:9 norm. to 1:1; other light chain m27
[27] = target: D3H44 light chain Q124E_V133D_S176L, N-terminal HA or FLAG tag; assay: LCCA, SPR of light chain tags, L1:L2 DNA 1:3 norm. to 1:1; other light chain m17
[28] = target: D3H44 light chain Q124R_Q160K_T178R, N-terminal HA or FLAG tag; assay: LCCA, SPR of light chain tags, L1:L2 DNA 1:3 norm. to 1:1; other light chain m27
[29] = target: D3H44 light chain Q124R_Q160K_T178R, N-terminal HA or FLAG tag; assay: LCCA, SPR of light chain tags, L1:L2 DNA 1:9 norm. to 1:1; other light chain m18
[30] = target: D3H44 light chain Q124E_V133E, N-terminal HA or FLAG tag; assay: LCCA, SPR of light chain tags, L1:L2 DNA 1:9 norm. to 1:1; other light chain m17
[31] = target: D3H44 light chain Q124R_Q160K_T178R, N-terminal HA or FLAG tag; assay: LCCA, SPR of light chain tags, L1:L2 DNA 1:3 norm. to 1:1; other light chain m18
[32] = target: D3H44 light chain Q124E_V133E, N-terminal HA or FLAG tag; assay: LCCA, SPR of light chain tags, L1:L2 DNA 1:3 norm. to 1:1; other light chain m17
[33] = target: D3H44 light chain Q124R_T178R, N-terminal HA or FLAG tag; assay: LCCA, SPR of light chain tags, L1:L2 DNA 1:3 norm. to 1:1; other light chain m25
[34] = target: D3H44 light chain Q124R_T178R, N-terminal HA or FLAG tag; assay: LCCA, SPR of light chain tags, L1:L2 DNA 1:3 norm. to 1:1; other light chain m22
[35] = target: D3H44 light chain Q124E_V133Y_T180E, N-terminal HA or FLAG tag; assay: LCCA, SPR of light chain tags, L1:L2 DNA 1:3 norm. to 1:1; other light chain m14
[36] = target: D3H44 light chain Q124E_V133W_T180E, N-terminal HA or FLAG tag; assay: as above
[37] = target: D3H44 light chain Q124E_V133D, N-terminal HA or FLAG tag; assay: LCCA, SPR of light chain tags, L1:L2 DNA 1:9 norm. to 1:1; other light chain m24
[38] = target: D3H44 light chain Q124R, N-terminal HA or FLAG tag; assay: LCCA, SPR of light chain tags, L1:L2 DNA 1:3 norm. to 1:1; other light chain m28
[39] = target: D3H44 light chain Q124E_V133D, N-terminal HA or FLAG tag; assay: LCCA, SPR of light chain tags, L1:L2 DNA 1:3 norm. to 1:1; other light chain m24
[40] = target: D3H44 light chain Q124R, N-terminal HA or FLAG tag; assay: LCCA, SPR of light chain tags, L1:L2 DNA 1:9 norm. to 1:1; other light chain m28
[41] = target: D3H44 light chain Q124E_V133E, N-terminal HA or FLAG tag; assay: LCCA, SPR of light chain tags, L1:L2 DNA 1:3 norm. to 1:1; other light chain m24
[42] = target: D3H44 light chain Q124R, N-terminal HA or FLAG tag; assay: LCCA, SPR of light chain tags, L1:L2 DNA 1:3 norm. to 1:1; other light chain m18

Substance “D3H44 Fab heavy chain Q179R, ABD2-His6 tagged” has an H2L2:H2L1 normalized median ratio [1] of 7%, an H2L2:H2L1 normalized median ratio [2] of 2% and an H2L2:H2L1 normalized median ratio [3] of 6%. It also gave an H2L2:H2L1 normalized median ratio [4] of 92%, an H2L2:H2L1 normalized median ratio [5] of 8% and an H2L2:H2L1 normalized median ratio [6] of 3%. The H2L2:H2L1 normalized median ratio [7] was 7%, the H2L2:H2L1 normalized median ratio [8] was 4% and the H2L2:H2L1 normalized median ratio [9] was 9%. For the same substance, the H2L2:H2L1 normalized median ratio [10] was 91%, the H2L2:H2L1 normalized median ratio [11] was 85% and the H2L2:H2L1 normalized median ratio [12] was 97%. For the same substance, the H2L2:H2L1 normalized median ratio [13] was 93%, the H2L2:H2L1 normalized median ratio [14] was 98% and the H2L2:H2L1 normalized median ratio [15] was 97%. For the same substance, the H2L2:H2L1 normalized median ratio [16] was 15%, the H2L2:H2L1 normalized median ratio [17] was 3% and the H2L2:H2L1 normalized median ratio [18] was 96%. For the same substance, the H2L2:H2L1 normalized median ratio [19] was 94% and the H2L2:H2L1 normalized median ratio [20] was 93%.
For “D3H44 Fab heavy chain S186K, ABD2-His6 tagged”, the H2L2:H2L1 normalized median ratio [3] was 5%, the H2L2:H2L1 normalized median ratio [8] was 4% and the H2L2:H2L1 normalized median ratio [9] was 11%. The H2L2:H2L1 normalized median ratio [10] was 89%, the H2L2:H2L1 normalized median ratio [21] was 99% and the H2L2:H2L1 normalized median ratio [15] was 98%. The H2L2:H2L1 normalized median ratio [22] was 2%, the H2L2:H2L1 normalized median ratio [23] was 1% and the H2L2:H2L1 normalized median ratio [17] was 2%. For the same substance, the H2L2:H2L1 normalized median ratio [18] was 96%, the H2L2:H2L1 normalized median ratio [24] was 98% and the H2L2:H2L1 normalized median ratio [19] was 95%.
“D3H44 Fab heavy chain L143K, ABD2-His6 tagged” gave an H2L2:H2L1 normalized median ratio [25] of 91%, an H2L2:H2L1 normalized median ratio [26] of 9% and an H2L2:H2L1 normalized median ratio [27] of 94%. It also gave an H2L2:H2L1 normalized median ratio [28] of 6%.
In the case of “D3H44 Fab heavy chain L143E_K145T, ABD2-His6 tagged”, the H1L1:H1L2 normalized median ratio [29] is reported as 37%, the H1L1:H1L2 normalized median ratio [30] is reported as 13% and the H1L1:H1L2 normalized median ratio [4] is reported as 19%. For the same substance, the H1L1:H1L2 normalized median ratio [5] was 81%, the H1L1:H1L2 normalized median scalar value ln(r1/f1) [5] was 1.44 and the H1L1:H1L2 normalized median ratio [6] was 59%. It also gave an H1L1:H1L2 normalized median scalar value ln(r1/f1) [6] of 0.37, an H1L1:H1L2 normalized median ratio [7] of 82% and an H1L1:H1L2 normalized median scalar value ln(r1/f1) [7] of 1.52. For the same substance, the H1L1:H1L2 normalized median ratio [31] was 79%, the H1L1:H1L2 normalized median scalar value ln(r1/f1) [31] was 1.35 and the H1L1:H1L2 normalized median ratio [12] was 41%. The H1L1:H1L2 normalized median ratio [32] was 21%, the H1L1:H1L2 normalized median ratio [21] was 53% and the H1L1:H1L2 normalized median ratio [13] was 18%. The H1L1:H1L2 normalized median ratio [15] was 41%, the H1L1:H1L2 normalized median ratio [22] was 46% and the H1L1:H1L2 normalized median scalar value ln(r1/f1) [22] was -0.16. It also gave an H1L1:H1L2 normalized median ratio [23] of 47%, an H1L1:H1L2 normalized median scalar value ln(r1/f1) [23] of -0.14 and an H1L1:H1L2 normalized median ratio [17] of 59%. It also gave an H1L1:H1L2 normalized median scalar value ln(r1/f1) [17] of 0.36 and an H1L1:H1L2 normalized median ratio [24] of 54%.
“D3H44 Fab heavy chain L143E_K145T_Q179E_S188L, ABD2-His6 tagged” showed an H1L1:H1L2 normalized median ratio [1] of 87%, an H1L1:H1L2 normalized median scalar value ln(r1/f1) [1] of 1.9 and an H1L1:H1L2 normalized median ratio [3] of 83%. It also gave an H1L1:H1L2 normalized median scalar value ln(r1/f1) [3] of 1.62, an H1L1:H1L2 normalized median ratio [8] of 77% and an H1L1:H1L2 normalized median scalar value ln(r1/f1) [8] of 1.19. It also gave an H2L2:H2L1 normalized median ratio [33] of 75%, an H1L1:H1L2 normalized median ratio [9] of 79% and an H1L1:H1L2 normalized median scalar value ln(r1/f1) [9] of 1.33. The H1L1:H1L2 normalized median ratio [10] was 21%, the H1L1:H1L2 normalized median ratio [11] was 10% and the H1L1:H1L2 normalized median ratio [16] was 90%. For the same substance, the H1L1:H1L2 normalized median scalar value ln(r1/f1) [16] was 2.25, the H2L2:H2L1 normalized median ratio [34] was 71% and the H2L2:H2L1 normalized median ratio [35] was 29%. It also gave an H2L2:H2L1 normalized median ratio [36] of 25%, an H1L1:H1L2 normalized median ratio [18] of 23% and an H1L1:H1L2 normalized median ratio [19] of 17%. It also gave an H1L1:H1L2 normalized median ratio [20] of 13%.
For “D3H44 Fab heavy chain L143K_D146G, ABD2-His6 tagged”, the H2L2:H2L1 normalized median ratio [37] was 88%, the H2L2:H2L1 normalized median ratio [38] was 9% and the H2L2:H2L1 normalized median ratio [39] was 91%. It also gave an H2L2:H2L1 normalized median ratio [40] of 12%.
“D3H44 Fab heavy chain L143R, ABD2-His6 tagged” gave an H2L2:H2L1 normalized median ratio [29] of 7%, an H2L2:H2L1 normalized median ratio [30] of 93% and an H2L2:H2L1 normalized median ratio [41] of 96%. The H2L2:H2L1 normalized median ratio [42] was 4%, the H2L2:H2L1 normalized median ratio [31] was 4% and the H2L2:H2L1 normalized median ratio [32] was 96%.
“D3H44 Fab heavy chain L143A_Q179K, ABD2-His6 tagged” showed an H1L1:H1L2 normalized median ratio [34] of 4%, an H1L1:H1L2 normalized median ratio [35] of 96% and an H1L1:H1L2 normalized median scalar value ln(r1/f1) [35] of 1.
